# Reference: patent US20240173398A1 (MAX PLANCK GESELLSCHAFT ZUR F RDERUNG DER WISSENSCHAFTEN E V, published 2024)
# Target: SARS-CoV-2 RBD (correctly folded, co-expressed with fold-promoting VHH in E. coli) (SARS-CoV-2, UniProt P0DTC2 330-527)
# Assay: co-expression in E. coli, co-purification and gel filtration
row,Binder,binding result
1,VHH antibody Re6A11 (VHH) VHH: QVQLVESGGGLVQAGGSLRLSCAASGRTFSNDALGWFRQAPRKEREFVAAINWNSGTYYADSVKGRFTISRDNAKNTVYLQMNSLKPEDTAVYSCAAASDYGLPREDFLYDYWGQGTLVTVSS,binds
2,VHH antibody Re9F06 (VHH) VHH: QVQLVESGGGLVQAGGSLRLSCAASGRTFSNDALGWFRQAPRKEREFVAAINWNSGTYYADSVKGRFTISRDNAKNTVYLQMNSLKPEDTAVYSCAAASDYGLPREDFLYDYWGQGTQVTVSS,binds
3,VHH antibody Re7E02 (VHH) VHH: QVQLVESGGGLVQAGGSLRLSCAASGFTLDYYAIGWFRQAPGKEREGVSYIRSSDGTTYYADSVKGRFTISRDNAKNTVYLQMNSLKPEDTAVYYCAADEAYYSELGWESPWGWSYWGQGTQVTVSS,binds
4,VHH antibody Re6B07 (VHH) VHH: QVQLVESGGGLVQPGGSLRLSCAASGFTLDYYAIGWFRQAPGKEREGVSYIRSSDGTTYYADSVKGRFTISRDNAKNTVYLQMNSLKPEDTAVYYCAADEAYYSELGWESPWGWSYWGQGTRVTVSS,binds
5,VHH antibody Re9C07 (VHH) VHH: QVQLVESGGGLVQAGGSLRLSCAASGRTFSRYAMGWFRQAPGKEREFVAAITWNADTTYYADSVKGRFTISRDNAKNTVYLQMNSLKPEDTAVYYCAAGGNHYYSRSYYSSLEYDHWGQGTQVTVSS,binds
6,VHH antibody Re9D02 (VHH) VHH: QVQLVESGGGLVQAGGSLRLSCAASGRTFSNYAMGWFRQAPGKEREFVAAISWGGDTTYYADSLKGRFTISRDNAKNTVYLQMNSLKPEDTAVYYCAADRGLSYYYDRVTEYDYWGQGTQVTVSS,binds
7,VHH antibody Re9G12 (VHH) VHH: QVQLVESGGGLVQAGGSLRLSCAASGRTFSSYVMGWFRQAPGKEREFVAHISWSGDSTYYADSVKGRFTIFRDNAKNTAYLQMNSLKPEDTAVYYCAADRGASYYYTWASEYNYWGQGTQVTVSS,binds
8,VHH antibody Re11H04 (VHH) VHH: QVQLVESGGGLVQPGGSLRLSCAASGFTLDYYTIAWFRQAPGKEREGVSCISGNDGSTYYADSVKGRFTISRDNAKNTVYLQMNSLKPEDTAVYYCAADRGESYYPFRPSEYHYWGQGTQVTVSS,binds
